Square brackets hold non-standard residues; d marks the D form. Ends that are not written are not given here. pS = N[C@@H](COP(=O)(O)O)C(=O)O
Target: T1, Human DVL2 PDZ domain (aa 265–361) (human, UniProt O14641 265-361)
T1 construct: Dishevelled 2 (DVL2), human, PDZ domain, residues 265-361; 15N-labelled for the NMR titration; The pET construct has a TEV cleavage site after the tags; also called wt PDZ; wildtype PDZ; source: E. coli BL21-DE3(RIL), purified
T1 sequence (looked up): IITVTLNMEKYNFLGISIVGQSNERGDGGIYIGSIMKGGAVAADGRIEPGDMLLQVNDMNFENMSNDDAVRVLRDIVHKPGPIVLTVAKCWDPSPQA
Assay: NMR titration; series of 1H-15N HSQC spectra, 100 μM 15N-labeled PDZ (wild type or phosphomimicking mutant) with increasing amounts of DVL_C peptide (stock 800 μM); proteins stored in 20 mM Hepes (pH 6.8), 50 mM KCl; 700 MHz; qualitative analysis
Conditions: both partners purified

B1: DVL3_C peptide 698–716 with phosphorylated S700 (peptide, UniProt Q92997 698-716, looked up)
peptide: RQ[pS]FRMAMGNPSEFFVDVM
notes: Dishevelled 3 (DVL3), human, C-terminal residues 698-716; also called DVL3 C-terminal peptide; source: bought: KareBay Biochem, Inc. (New Jersey, USA)
binding result: binds

From PMC6927192, “Comparative phosphorylation map of Dishevelled 3 links phospho-signatures to biological outputs” (Cell Communication and Signaling : CCS, 2019)
